Reference: patent US7611721B1, “Adjuvant combination formulations” (priority 2000, dated 2009)
Where two headings read alike, the source gives them in different places.

B1: rIL-12: Recombinantly expressed murine IL-12 (Genetics Institute) (protein, UniProt P43431 23-215; P43432 23-335, looked up)
Interleukin-12 subunit alpha: RVIPVSGPARCLSQSRNLLKTTDDMVKTAREKLKHYSCTAEDIDHEDITRDQTSTLKTCLPLELHKNESCLATRETSSTTRGSCLPPQKTSLMMTLCLGSIYEDLKMYQTEFQAINAALQNHNHQQIILDKGMLVAIDELMQSLNHNGETLRQKPPVGEADPYRVKMKLCILLHAFSTRVVTINRVMGYLSSA
Interleukin-12 subunit beta: MWELEKDVYVVEVDWTPDAPGETVNLTCDTPEEDDITWTSDQRHGVIGSGKTLTITVKEFLDAGQYTCHKGGETLSHSHLLLHKKENGIWSTEILKNFKNKTFLKCEAPNYSGRFTCSWLVQRNMDLKFNIKSSSSSPDSRAVTCGMASLSAEKVTLDQRDYEKYSVSCQEDVTCPTAEETLPIELALEARQQNKYENYSTSFFIRDIIKPDPPKNLQMKPLKNSQVEVSWEYPDSWSTPHSYFSLKFFVRIQRKKEKMKETEEGCNQKGAFLVEKTSTEVQCKGGNVCVQAQDRYYNSSCSKWACVPCRVRS

What was measured:
[1] = system: T1SP10MN(A) (−Cys); settings: for Vaginal lavage reciprocal anti-T1SP10MN(A) (−Cys) IgA endpoint titer / Vaginal lavage reciprocal anti-T1SP10MN(A) (−Cys) IgG endpoint titer: Experiment 2, pooled, n=5 Balb/c, 15 days after secondary immunization
Experimental: Animals were bled prior to initial immunization, and at indicated time points. Serum was analyzed from individual mice, or as pools from mice within groups. Vaginal lavage was performed on euthanized mice to assess antibody levels. This was accomplished by instillation of 75:1 RPMI-10 into the vaginal vault of female mice using a 200:1 pipette. The vault was washed by repeated delivery and removal of fluid, which was then added to 10:1 of FBS. Vaginal lavage were analyzed as pools.
For analysis of HIV peptide-specific antibody and subclass distribution, peptide was suspended in either carbonate buffer (15 mM Na2CO3, 35 mM NaHCO3, pH 9.6), or PBS, at a concentration of 1 μg/ml and plated to 96 well microtiter plates (Nunc) in a volume of 100:1. After overnight incubation at 37° C., plates were washed, and blocked (0.1% gelatin/PBS) at room temperature for 2-4 hours. ELISA plates were washed with wash buffer (PBS, 0.1% Tween™20) before addition of serially diluted serum (PBS, 0.1% gelatin, 0.05% Tween™20, 0.02% sodium azide). After a four hour incubation, wells were washed and appropriate dilutions of biotinylated anti-isotype/subclass antibodies were added for incubation at 4° C. overnight. Wells were washed and incubated with strepavidin-conjugated horseradish peroxidase. After incubation, wells were washed, and developed with ABTS. Wells were read at 405 nm. Titers were standardized using control sera.
Vaginal IgG and IgA anti-peptide antibody titers were measured from lavage obtained 2 weeks after final immunization. Groups of 5 Balb/c female mice were immunized with 25 μg T1SP10MN(A) (−Cys) and the indicated adjuvant formulations on days 0, 28, and 42. Vaginal antibody titers were determined from pool d lavage fluid.
HIV peptide-specific vaginal lavage endpoint reciprocal endpoint IgG and IgA antibody titers were measured from pooled serum (n=5 Balb/c) 15 days after secondary immunization. […] Aqueous MPL™ was delivered at 50 μg per dose. Recombinant murine IL-12 was delivered at 40 ng/mouse. Recombinant murine GM-CSF was delivered at 10 μg/mouse.
Vaginal IgG and IgA anti-peptide antibody titers were measured from lavage 41 days after initial immunization, 13 days after secondary immunization.

[2] = system: T1SP10MN(A) (−Cys); settings: for Reciprocal anti-T1SP10MN(A) (−Cys) IgG (GMT) endpoint titer / Reciprocal anti-T1SP10MN(A) (−Cys) IgG1 (pool) endpoint titer / Reciprocal anti-T1SP10MN(A) (−Cys) IgG2a (pool) endpoint titer / Reciprocal anti-T1SP10MN(A) (−Cys) IgG (pool) endpoint titer: Experiment 2, 14 days after second immunization; for Reciprocal anti-T1SP10MN(A) (−Cys) IgG (GMT) endpoint titer: geometric mean of individual Balb/c mice; for Reciprocal anti-T1SP10MN(A) (−Cys) IgG (pool) endpoint titer: immunized days 0 and 21; for IgG serum titer specific for T1SP10MN(A) (−Cys), Mouse #1 / IgG serum titer specific for T1SP10MN(A) (−Cys), Mouse #2 / IgG serum titer specific for T1SP10MN(A) (−Cys), Mouse #3 / IgG serum titer specific for T1SP10MN(A) (−Cys), Mouse #4 / IgG serum titer specific for T1SP10MN(A) (−Cys), Mouse #5: individual Balb/c mouse, day 41, 13 days after secondary immunization (days 0 and 28); for Geometric Mean IgG serum titer specific for T1SP10MN(A) (−Cys), GMT: n=5 Balb/c
Experimental: Mice were immunized subcutaneously in the rump, in a total volume of 0.2 ml equally divided on each side of the tail. Immunizations were administered at varying time intervals, as indicated below. Antigen and cytokines were diluted in phosphate buffered saline to the appropriate concentrations and formulated with adjuvants less than 16 hours prior to immunization, under sterile conditions. Vaccines were mixed by gentle agitation, and stored at 4° C. Formulations were mixed by vortex immediately prior to immunization.
Reciprocal anti-HIV peptide-specific IgG endpoint titers were measured from pooled serum (n=5 Balb/c) at the indicated time points after initial immunization. Mice were immunized subcutaneously in the rump with 25 μg of T1SP10MN(A) (−Cys), unless otherwise indicated, on day 0, and on day 27. For recipients of Freund's adjuvants, mice were primed with peptide emulsified in CFA, and boosted with IFA. MPL™ SE was provided as an emulsion containing 2% squalene oil and 50 μg MPL™ per dose. SE is an oil-in-water emulsion vehicle consisting of squalene, glycerol, and an emulsifying agent. Recombinant murine IL-12 was delivered at 50 ng/mouse. Recombinant murine GM-CSF was delivered at 10 μg/mouse.
Reciprocal endpoint IgG subclass titers were measured from pooled serum (n=5 Balb/c) six weeks after initial immunization, two weeks after secondary immunization. Mice were immunized subcutaneously in the rump with 25 μg of peptide, unless otherwise indicated. For recipients of Freund's adjuvants, mice were primed with peptide emulsified in complete Freund's adjuvant, and boosted with incomplete Freund's adjuvant on weeks four and six. MPL™ SE was provided as an emulsion containing 2% squalene oil and 50 μg MPL™ per dose. SE is an oil-in-water emulsion vehicle consisting of squalene, glycerol, and an emulsifying agent. Recombinant murine IL-12 was delivered at 50 ng/mouse. Recombinant murine GM-CSF was delivered at 10 μg/mouse.
Mice were immunized subcutaneously in the rump, in a total volume of 0.2 ml equally divided on each side of the tail. Immunizations were administered on days 0 and 21 with 25 μg of the HIV peptide, together with the indicated amount of adjuvant(s).
Reciprocal anti-peptide IgG endpoint titers were measured from either geometric means from individual mice (GMT) or from pooled serum (n=5 Balb/c), obtained 14 days after the second immunization. IgG1 and IgG2a subclass endpoint titers were also measured from pooled serum.

[3] = system: T1SP10MN(A) (−Cys); settings: Experiment 3; pooled, n=5 Swiss-Webster; 15 days after secondary immunization
Experimental: (§1) The protocols of Experiment 2 were followed, with Swiss-Webster mice used instead of Balb/c mice. Only reciprocal anti-peptide IgG endpoint titers and vaginal lavage endpoint reciprocal endpoint IgG and IgA antibody titers were measured in this experiment.
Aqueous MPL™ was delivered at 50 μg per dose. Recombinant murine IL-12 was delivered at 40 ng/mouse. Recombinant murine GM-CSF was delivered at 10 μg/mouse.

[4] = system: spleen cells; assay: Secretion of interferon-gamma by spleen cells (ELISA); assay type: cell-based, Balb/c mice; settings: for Secretion of Interferon-gamma, Con A 5 μg/ml / Secretion of Interferon-gamma, HIV Peptide 1.1 μg/ml / Secretion of Interferon-gamma, HIV Peptide 3.3 μg/ml / Secretion of Interferon-gamma, HIV Peptide 10 μg/ml: Experiment 2, 96 hours culture, after subtraction of lysozyme value; for Secretion of Interferon-gamma, HIV Peptide 1.1 μg/ml / Secretion of Interferon-gamma, HIV Peptide 3.3 μg/ml / Secretion of Interferon-gamma, HIV Peptide 10 μg/ml: bd = below limit of detection; for Secretion of Interferon-gamma, Con A 1 μg/ml: Experiment 1
Experimental: For proliferation assays and in vitro cytokine analysis, spleen cells were obtained from mice at the indicated time points. Single cell suspensions were prepared from pools of 3-5 mice as indicated in Results. For proliferation and cytokine analysis, cells were suspended in round bottom 96 well culture plates precoated overnight with HIV peptide antigens, control proteins, or RPMI-10 only. Spleen cells were added at 5×10^5 cells/well using culture medium having 2× supplements. Cell culture supernatants were harvested from triplicate wells for cytokine analysis three or six days after culture initiation. Immediately after supernatant harvest, cultures were pulsed with ^3H-thymidine for 18-24 hours, and harvested to quantify cell proliferation.
For cytokine analysis, cell culture supernatants were added to wells coated with BVD6-11B11 (for anti-IL4), or R4-6A2 (for interferon-gamma). After incubation and washing, wells were developed using biotin-labeled BVD6-24G2 (for IL4) or XMG 1.2 (for interferon-gamma). The concentration of cytokines was determined using a standard curve prepared from recombinant murine interferon-gamma or interleukin-4. All cytokine reagents were purchased from Pharmingen (San Diego, Calif.).
Interferon-gamma secreted into culture by spleen cells stimulated with 25 μg T1SP10MN(A) (−Cys). Spleen cells were harvested from pools of five Balb/c female mice and cultured with the indicated antigenic stimuli (the same as in Example 6) for either three or six days. Interferon-gamma levels were determined by ELISA, and compared to a standard having a known concentration. Blank wells indicate that the assay could not detect Interferon-gamma from those culture conditions. The lower limit of detection sensitivity was 4 picograms/ml.
Cells were cultured for a total of 96 hours. Cell culture supernatants were analyzed for interferon-gamma by ELISA. All values were after subtraction from those determined from supernatants of cells stimulated with 10 μg of lysozyme. Results which were below the limit of detection, after subtraction from stimulation induced with lysozyme are indicated as “bd”. The adjuvants were the same as those in Example 12.

[5] = system: T1SP10MN(A) (−Cys); settings: Experiment 3, 14 days after second immunization; for Reciprocal anti-HIV peptide IgG (GMT) endpoint titer: individual Swiss-Webster mice; for Reciprocal anti-HIV peptide IgG1 (pool) endpoint titer / Reciprocal anti-HIV peptide IgG2a (pool) endpoint titer: pooled serum Swiss-Webster
Experimental: as §1
Reciprocal anti-T1SP10MN(A) (−Cys) IgG endpoint titers were measured from geometric means from individual Swiss-Webster mice (GMT), obtained 14 days after the second immunization. IgG1 and IgG2a subclass endpoint titers were also measured from pooled serum. For recipients of Freund's adjuvants, mice were primed with peptide emulsified in CFA, and boosted with IFA. […] Aqueous MPL™ was delivered at 50 μg per dose. Recombinant murine IL-12 was delivered at 40 ng/mouse. Recombinant murine GM-CSF was delivered at 10 μg/mouse.

[6] = Experiment 4, Balb/c, day 41, 13 days after secondary immunization
[7] = Experiment 4, day 41, 13 days after secondary immunization
[8] = Experiment 4, pooled serum n=5 Balb/c, day 41, 13 days after secondary immunization
[9] = Experiment 5, pooled serum n=5 Balb/c, immunized days 0 and 22, bled day 42
[10] = Experiment 1, pooled lavage, 5 Balb/c, immunized days 0, 28, 42, 2 weeks after final immunization
[11] = Experiment 1, pooled serum n=5 Balb/c, 25 μg peptide s.c. day 0 and 27
[12] = Experiment 1, pooled serum n=5 Balb/c, six weeks after initial, two weeks after secondary immunization, 25 μg peptide

| Molecule | Vaginal lavage reciprocal anti-T1SP10MN(A) (−Cys) IgA endpoint titer [1] | Vaginal lavage reciprocal anti-T1SP10MN(A) (−Cys) IgG endpoint titer [1] | Vaginal lavage IgA anti-T1SP10MN(A) (−Cys) antibody titer [1, 6] | Vaginal lavage IgG anti-T1SP10MN(A) (−Cys) antibody titer [1, 6] | Reciprocal anti-T1SP10MN(A) (−Cys) IgG (GMT) endpoint titer [2] | Reciprocal anti-T1SP10MN(A) (−Cys) IgG1 (pool) endpoint titer ([2]; pooled serum n=5 Balb/c) | Reciprocal anti-T1SP10MN(A) (−Cys) IgG2a (pool) endpoint titer ([2]; pooled serum n=5 Balb/c) | Reciprocal anti-T1SP10MN(A) (−Cys) IgG (pool) endpoint titer ([2]; pooled serum n=5 Balb/c) | IgG serum titer specific for T1SP10MN(A) (−Cys), Mouse #1 ([2]; Experiment 4) | IgG serum titer specific for T1SP10MN(A) (−Cys), Mouse #2 ([2]; Experiment 4) | IgG serum titer specific for T1SP10MN(A) (−Cys), Mouse #3 ([2]; Experiment 4) | IgG serum titer specific for T1SP10MN(A) (−Cys), Mouse #4 ([2]; Experiment 4) | IgG serum titer specific for T1SP10MN(A) (−Cys), Mouse #5 ([2]; Experiment 4) | Geometric Mean IgG serum titer specific for T1SP10MN(A) (−Cys), GMT [2, 7] | Reciprocal anti-T1SP10MN(A) (−Cys) IgG1 endpoint titer [2, 8] | Reciprocal anti-T1SP10MN(A) (−Cys) IgG2a endpoint titer [2, 8] | Reciprocal anti-T1SP10MN(A) (−Cys) IgG2b endpoint titer [2, 8] | Vaginal lavage reciprocal anti-HIV peptide IgA endpoint titer [3] | Vaginal lavage reciprocal anti-HIV peptide IgG endpoint titer [3] | Secretion of Interferon-gamma, Con A 5 μg/ml [4] [units/ml] | also measured |
| --- | --- | --- | --- | --- | --- | --- | --- | --- | --- | --- | --- | --- | --- | --- | --- | --- | --- | --- | --- | --- | --- |
| 3-O-deacylated monophosphoryl lipid A [MPL ™] | <10 | <10 | <10 | 12 | 241,918 | 134,428 | 7,127 | 219,705 | 50 | 151,846 | 249,054 | 436,378 | 1,245,470 | 63,452 | 33,544 | 212 | <100 | <10 | <10 | 203 | Reciprocal anti-T1SP10MN(A) (−Cys) IgG GMT ([2]; Experiment 5, geometric mean n=5 Balb/c, immunized days 0 and 22, bled day 42): 2,032,441; Reciprocal anti-T1SP10MN(A) (−Cys) IgG1 endpoint titer [2, 9]: 1,314,771; Reciprocal anti-T1SP10MN(A) (−Cys) IgG2a endpoint titer [2, 9]: 9,688; Reciprocal anti-T1SP10MN(A) (−Cys) IgG2b endpoint titer [2, 9]: 13,716; Reciprocal anti-T1SP10MN(A) (−Cys) IgG endpoint titer [2, 9]: 2,635,118; Secretion of Interferon-gamma, HIV Peptide 1.1 μg/ml [4]: bd; Secretion of Interferon-gamma, HIV Peptide 3.3 μg/ml [4]: bd; Secretion of Interferon-gamma, HIV Peptide 10 μg/ml [4]: 5 units/ml; Reciprocal anti-HIV peptide IgG (GMT) endpoint titer [5]: 1,960; Reciprocal anti-HIV peptide IgG1 (pool) endpoint titer [5]: <1000; Reciprocal anti-HIV peptide IgG2a (pool) endpoint titer [5]: <1000 |
| B1 | <10 | <10 | <10 | <10 | 500 | <1000 | <1000 | <1000 | 594 | 50 | 50 | 50 | 50 | 82 | <100 | <100 | <100 | <10 | <10 | 179 | Vaginal lavage IgA anti-T1SP10MN(A) (−Cys) antibody titer [1, 10]: <20; Vaginal lavage IgG anti-T1SP10MN(A) (−Cys) antibody titer [1, 10]: <20; Reciprocal anti-T1SP10MN(A) (-Cys) IgG endpoint titer, WEEK 4 [2, 11]: <100; Reciprocal anti-T1SP10MN(A) (-Cys) IgG endpoint titer, WEEK 6 [2, 11]: <100; Reciprocal anti-T1SP10MN(A) (-Cys) IgG endpoint titer, WEEK 8 [2, 11]: <100; Reciprocal anti-T1SP10MN(A) (-Cys) IgG1 endpoint titer [2, 12]: <100; Reciprocal anti-T1SP10MN(A) (-Cys) IgG2a endpoint titer [2, 12]: <100; Reciprocal anti-T1SP10MN(A) (-Cys) IgG2b endpoint titer [2, 12]: <100; Secretion of Interferon-gamma, Con A 1 μg/ml ([4]; Six Day Cultures): 8.4 picograms/ml; Secretion of Interferon-gamma, Con A 1 μg/ml ([4]; Three Day Cultures, detection limit 4 picograms/ml): 5.9 picograms/ml; Secretion of Interferon-gamma, HIV Peptide 1.1 μg/ml [4]: 41 units/ml; Secretion of Interferon-gamma, HIV Peptide 3.3 μg/ml [4]: 2 units/ml; Secretion of Interferon-gamma, HIV Peptide 10 μg/ml [4]: 4 units/ml; Reciprocal anti-HIV peptide IgG (GMT) endpoint titer [5]: 500; Reciprocal anti-HIV peptide IgG1 (pool) endpoint titer [5]: <1000; Reciprocal anti-HIV peptide IgG2a (pool) endpoint titer [5]: <1000 |
